The conditions of data set [1]: rabbit, in vivo; cited from earlier work.
Data set [2] has as its system IgG molecules present in normal human sera. The experiment in a line: Serum response analysis by ELISA (IgG binding to albumin binding polypeptides). To be noted: 126 sera positive for one or more albumin binding polypeptides; sera diluted 50 times. The method, then: The percentage of human serum containing IgG, capable of binding to a set of albumin binding polypeptides as disclosed herein was analyzed by ELISA.
The plates were coated over night […] at 4° C. On the day of analysis, the plates were washed twice with tap water and blocked for 2 hours with 100 μl of phosphate buffered saline (PBS) containing 0.05% casein (PBSC). […] After incubation for two hours at room temperature (RT), the plates were washed in PBSC four times using an automated ELISA washer. […] 50 μl of the diluted sera was added per well according to the pre-made plate layout. Each serum sample was tested as a singlet. Positive and negative controls were included on each plate and for each albumin binding polypeptide. […] The plates were incubated for one hour at RT and subsequently washed four times in PBSC using an automated ELISA washer.

For data set [3], the system named is CD3+ CD4+ T cells.
For data set [4] the following is noted: human, in vivo; cited from earlier work.
For data set [5] the following is noted: mouse, in vivo; cited from earlier work.
The conditions of data set [6]: rat, in vivo; cited from earlier work.
Data set [7] has as its system NIH/Swiss mice. The experiment in a line: OGTT DOA (oral glucose tolerance test duration of action). Format: in vivo, mouse. To be noted: dosed 24 hours before OGTT, even at higher doses. An excerpt:
Water and a standard pelleted mouse chow diet were available ad libitum, except as noted. […] Significant treatment effects were identified by ANOVA (p<0.05).

Data set [8] addresses T1, GLP-1 receptor (Rattus norvegicus, UniProt P32301).
T1 construct: functional activity was determined using cells that endogenously express GLP-1R; endogenous in cells; host or cells: rat thyroid carcinoma 6-23 (clone 6) cells (ATCC CRL-1607)
T1 sequence (P32301 22-463): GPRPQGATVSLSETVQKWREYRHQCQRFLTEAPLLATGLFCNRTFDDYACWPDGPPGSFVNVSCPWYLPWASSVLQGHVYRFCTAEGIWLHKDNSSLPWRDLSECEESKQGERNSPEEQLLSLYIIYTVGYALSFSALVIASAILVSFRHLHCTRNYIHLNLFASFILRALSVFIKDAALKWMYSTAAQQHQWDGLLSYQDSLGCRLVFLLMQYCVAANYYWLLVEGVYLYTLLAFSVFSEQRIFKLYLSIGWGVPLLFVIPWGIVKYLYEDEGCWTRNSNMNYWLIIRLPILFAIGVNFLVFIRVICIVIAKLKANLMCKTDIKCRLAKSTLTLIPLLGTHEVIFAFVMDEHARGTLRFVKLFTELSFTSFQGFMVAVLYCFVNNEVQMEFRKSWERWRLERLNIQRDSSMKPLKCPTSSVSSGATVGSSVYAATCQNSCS
Description: GLP-1 receptor functional assay (cAMP induction, HTRF) in rat thyroid carcinoma 6-23 (clone 6) cells. In kind it is cell-based. The procedure: In another embodiment the cell-based assay is a homogeneous time-resolved fluorescence assay (HTRF®). HTRF® kits are commercially available from Cisbio International (Bedford, Mass.). […] See worldwideweb.htrf.com/products/gper/camp/, the disclosure of which is incorporated by reference herein. […] The HTRF® standards and calibrations are prepared following the instructions in the kit. Assays may be performed with or without the presence of albumin.
See for example United States Patent Application Publication US20110097751A1, incorporated by reference for the assay method. In this example, functional activity was determined using cells that endogenously express GLP-1R, and cAMP induction is detected as a measure of exendin activity.
The data above was determined in the presence of about 0.1% bovine serum albumin (BSA).
For orientation: TR-FRET usually uses a lanthanide donor and a delayed reading to cut background.

Data on five molecules can be found in US9382304B2, “Engineered polypeptides having enhanced duration of action with reduced immunogenicity” (priority 2011, dated 2016).

Usually half-life stands for the time in which the quantity being followed falls by half.

Like-named read-outs stand apart in the source and are kept apart here.

In the case of “rabbit serum albumin: rabbit serum albumin”, the half-life entry in data set [1] is “about 5 days”.

Take `CC[C@H](C)[C@H](NC(=O)[C@H](C)NC(=O)[C@H](CC(=O)O)NC(=O)[C@H](CCCCN)NC(=O)[C@H](CC(C)C)NC(=O)[C@H](C)NC(=O)[C@H](CCC(=O)O)NC(=O)[C@@H](NC(=O)CNC(=O)[C@H](CCC(=O)O)NC(=O)[C@@H](NC(=O)[C@@H](NC(=O)[C@H](CCCCN)NC(=O)[C@H](C)NC(=O)[C@H](CCCCN)NC(=O)[C@H](CC(=O)O)NC(=O)[C@@H](NC(=O)[C@H](CC(C)C)NC(=O)[C@H](CCCNC(=N)N)NC(=O)[C@H](CCCCN)NC(=O)[C@H](Cc1ccc(O)cc1)NC(=O)[C@H](Cc1ccccc1)NC(=O)[C@H](CC(=O)O)NC(=O)[C@H](CO)NC(=O)[C@@H](NC(=O)CNC(=O)[C@H](Cc1ccc(O)cc1)NC(=O)[C@H](CSC1CC(=O)N(CCNC(=O)CN2CCN(CC(=O)O)CCN(CC(=O)O)CCN(CC(=O)O)CC2)C1=O)NC(=O)[C@H](CC(=O)O)NC(=O)[C@H](CC(C)C)NC(=O)[C@H](CCC(=O)O)NC(=O)[C@H](C)NC(=O)[C@H](CC(N)=O)NC(=O)[C@H](C)NC(=O)[C@H](C)NC(=O)[C@H](CCC(=O)O)NC(=O)[C@H](CCCCN)NC(=O)[C@H](C)NC(=O)[C@H](CO)NC(=O)[C@H](C)NC(=O)[C@H](CC(C)C)NC(=O)CN)C(C)C)[C@@H](C)CC)[C@@H](C)O)C(C)C)C(C)C)C(=O)N[C@@H](CC(C)C)C(=O)N[C@@H](C)C(=O)N[C@@H](C)C(=O)N[C@@H](CC(C)C)C(=O)N1CCC[C@H]1C(=O)O` (some centres unmarked) [PEP07968]: the “IgG binding reactivity (average OD-value, percentage of serum with IgG binding)” value in data set [2] is “least reactivity”. Besides, in data set [3], the immunogenicity definition entry is “non-immunogenic” and the “number of donors in which CD3+ CD4+ T cells proliferation was induced, compared to the albumin control” value came to 1 donors.

For the molecule albumin, the half-life in data set [4] was 456 h; in data set [1], 134 h; in data set [5], 24 h; in data set [6], 45.6 h.

Consider “GSLAEAKEAANAELDSYGVSDFYKRLIDKAKTVEGVEALKDAILAALP [PEP07986]”, for which the “activity in OGTT DOA when dosed at t-24 hours” value in data set [7] is “inactive”.

B1: HGEGTFTSDLSKQLEEEAVRLFIEWLKNTGGGGSASGSLAEAKEAANAELDSYGVSDFYKRLIDKAKTVEGVEALKDAILAALP (protein)
chain: HGEGTFTSDLSKQLEEEAVRLFIEWLKNTGGGGSASGSLAEAKEAANAELDSYGVSDFYKRLIDKAKTVEGVEALKDAILAALP
For B1, the “in vitro activity against the GLP-1 receptor” value in data set [8] is “active in vitro”. Moreover, the “activity in OGTT DOA when dosed at t-24 hours” value in data set [7] is given as “did not display 24 duration”.
